What was measured:
[1] = target: APOBEC3G (A3G-Myc-His) (human, UniProt Q9HC16 1-384); experiment: EMSA
[2] = target: A3G-H248A/H250A-Myc-His (human, UniProt Q9HC16 1-384, H248A;H250A); experiment: EMSA
A3G-H248A/H250A-Myc-His, sequence (Q9HC16 whole entry H248A/H250A): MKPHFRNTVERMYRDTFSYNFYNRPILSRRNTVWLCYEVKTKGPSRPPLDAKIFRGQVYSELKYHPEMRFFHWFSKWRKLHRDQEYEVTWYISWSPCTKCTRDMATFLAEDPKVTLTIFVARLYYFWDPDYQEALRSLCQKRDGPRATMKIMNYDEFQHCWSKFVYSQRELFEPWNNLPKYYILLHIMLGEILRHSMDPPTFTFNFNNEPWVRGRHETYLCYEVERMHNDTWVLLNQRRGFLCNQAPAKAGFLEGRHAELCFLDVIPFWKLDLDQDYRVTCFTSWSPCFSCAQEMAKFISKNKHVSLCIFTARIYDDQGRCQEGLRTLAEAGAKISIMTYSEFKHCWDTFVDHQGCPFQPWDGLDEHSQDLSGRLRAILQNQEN

APOBEC3G (A3G-Myc-His), sequence (Q9HC16 whole entry): as the sequence (Q9HC16 whole entry H248A/H250A) above, with A248H, A250H counted along it

ATTATTATTATTCCAATGGATTTATTTATTTATTTATTTATTT (ssDNA) [43-nt ssDNA]: binds [1]; binds [2].
